In one test the test system is ND6 mRNA. As to the kind of experiment: Real-time PCR of mitochondria-encoded mRNA levels in SN4741 cells. The following applies: construct over-expressed in SN4741 cells. Format: cell-based, mouse. The source says: (A) Mitochondria-targeting MEF2D (Mt2D) and mitochondria-targeting dominant-negative MEF2D (Mt2Ddn), which lacks the transactivation domain (TAD). […] Control indicates the control vector group. (C) Effects of Mt2D or Mt2Ddn on ND6 expression in SN4741 cells. Over-expression of Mt2Ddn in SN4741 cells reduced ND6 but not PPAR-γ coactivator 1 (PGC1) expression by western blotting (n=4, **p<0.01). Control indicates the control vector group. (D) Effects of over-expression of Mt2D or Mt2Ddn on mRNA levels of mitochondria encoded genes. […] Control indicates the control vector group. (E) Effects of Mt2D or Mt2Ddn on mtDNA L-strand transcription initiation in vitro (n=3; **P<0.01). A human mtDNA fragment containing mitochondrial L-strand promoter (LSP) and ND6 gene was used in the in vitro transcription assay. […] (F) Effects of Mt2D or Mt2Ddn on mtDNA de novo transcription in vivo (n=3; **P<0.01). Control (−) is without primers. Control (+) indicates the control vector group.

In the next test the test system is mitochondrial complex I. In words: Mitochondrial complex protein level and activity (BN-PAGE, in-gel staining, quantitative assays). Format: cell-based, mouse. The note with it: over-expression in SN4741 cells. The source says: (A) Requirement of mitochondrial MEF2D for complex I activity. […] Control indicates the control vector group. (B) Over-expression of ND6 rescued complex I activity reduced by Mt2Ddn. Control indicates the control vector group. (C) Measurement of various complex activities. […] Control indicates the control vector group. (D) Effects of over-expression of Mt2D or Mt2Ddn on mitochondrial function. Mt2Ddn reduced cellular ATP level and elevated H2O2 production in SN4741 cells (n=4; *p<0.05; **P<0.01). Control indicates the control vector group.
Mitochondrial complex I activity was evaluated initially by blue native-polyacrylamide gel electrophoresis (BN-PAGE) and in-gel activity staining. This assay measures total complex I activity. Rotenone sensitive complex I activity and activities of other mitochondrial complexes were further measured by methods described by Antoni et al., J Biol Chem, 1998, 273:14210-14217. Briefly, parallel assays were performed to measure complex I activity at 340 nm using 2,3-dimethoxy-5-methyl-6-n-decyl-1,4-benzoquinone (DB) (50 μM) as acceptor and NADH (0.8 mM) as donor, in 50 mM Tris (pH 8.0) buffer supplemented with 5 mg/ml BSA either without or with the addition of 4 μM rotenone, which gave total and rotenone insensitive complex I activities, respectively. The difference in value between the two provided a quantified measure of the rotenone-sensitive activity. Mitochondrial membrane potential was detected using a kit (cat. no. 280002) from Stratagene following the procedures provided by the manufacturer. The fluorescent dye JC-1 (5,5′,6,6′-tetrachloro-1,1′,3,3′-tetraethylbenzimidazolyl carbocyanine iodide) stains mitochondria red in a membrane potential dependent manner. Briefly, cells were seeded in 96-well plates at 4×10^4 cells/well with 100 μl culture medium and incubated at 33° C. with 5% CO2. After treatment, 10 μl/well of premixed JC-1 staining solution was added, and the cells were incubated for an additional 30 min under the same conditions. After thorough washes, 100 μl assay buffer was added to each well. Fluorescence signal was detected with excitation and emission at 520 nm and 590 nm, respectively, on a multi-well plate reader (Bio-Tek). Cellular ATP and H202 were measured by Bioluminescent Somatic Cell ATP Assay Kit (Sigma) and Hydrogen Peroxide Assay Kit (Cayman), respectively.

[1] abbreviates: non-denature gel electrophoresis.

B1: Mt2Ddn: Mitochondria-targeting dominant-negative MEF2D: mouse MEF2D 1-131aa with mitochondria-targeting signal, lacks the transactivation domain (protein, UniProt Q63943 1-131, looked up, fragment)
chain: MGRKKIQIQRITDERNRQVTFTKRKFGLMKKAYELSVLCDCEIALIIFNHSNKLFQYASTDMDKVLLKYTEYNEPHESRTNADIIETLRKKGFNGCDSPEPDGEDSLEQSPLLEDKYRRASEELDGLFRRY
modifications: mitochondria-targeting signal added
B1: in the test on ND6 mRNA, the “ND6 mRNA level” value was “clearly reduced” and the “mRNA levels of other mitochondria-encoded proteins” value was “little effect”. In addition, the “mitochondrial complex I activity” value in the test on mitochondrial complex I is reported as “significantly reduced”. In the test with mitochondrial complex I (setting [1]), the “protein level of complex II-V” value is on record as “no effect” and the “protein level of mitochondrial complex I” value is “markedly reduced”.

The record behind these values is patent publication US20120149645A1, “COMPOSITIONS AND MODULATION OF MYOCYTE ENHANCER FACTOR 2 (MEF2)” (EMORY UNIVERSITY, priority 2010, published 2012).
